{
  "source": "the PETadex activity labels (doi:10.1016/j.ijbiomac.2024.137732)",
  "proteins": {"B1": {"name": "unnamed (protein)", "chain": "ASEQSTKNITNVTTESDVSVYRDLMLVAGKYVFYPADFETTTKKYPVVTWANGSWCPIQTYLPIIYGLVKAGYIVVADTDLLTDDGKSTVDSVSYIIKQNKNKNSMFYKRINTKQIGSTGHSLGGQAAVNASAKDSRIKAIVSLAGKSVADEAAKVTVPALYLSGTLDMIVPSKDYVYPSYKASKGPAAYASFNNMVHFGVWIAPGNYVKYTVAWFDVYLKGDKSKLSMFKKGGDLSTDDFWINYESKNL"}, "B2": {"name": "unnamed (protein)", "chain": "QELQEDWWRTGKYAIEDIADPVYSLDEEYMRDTPNLYLPKGKTGKLPVVIVIHGWGGTKEQMQPTAQLLASHGMLVLNYTAVDQNQPFQWLDGLVAAYTLLEGENRRPGSKIYNRVDFQRIGLLGHSMGAAGVLHIAAMEKPNGLRGKIKTVVSMMPYHGTTSTFTDNIAGGKDKLGCDISSTPNATLIISAELDPTNEPIGGYEFYQTLKRNKRVFFSLKGAKHIDWMKERDKKYSVAMPVITAWMLTYLCGETQYESYFREGGHYFEKWVRETLKGNVKVGRGEFPAFEIKEP"}, "B3": {"name": "unnamed (protein)", "chain": "QELQENWWSNGKYAIEDVADPVYSFDEEYMKDVPNIYLPIGKTGKLPVVIVVHGWAAYKEQMHDTAQLLASHGMLVLVYTAMDQNQPFQWLDGIIAAYTLLEGENRRPGSKIHNRVDFQRIGLLGHSMGGTGVLFSAAMEKPNGLRGKIKTVVSLMPYHGTTNFISDAVAGGKDKLGCDVSATPNATLIISGEVDEVNEPIGGYEFYQTLTQNKRVFFSMKGTHHNDWRNKEGKESENYPIVMPVVSSWMLAYLCGERQYESFFKEGGLYFEKWIRPTLKGNVKVGRGEFPAFEIKEP"}, "B4": {"name": "unnamed (protein)", "chain": "NADQFVQFESAAVKPTQFQERNARARGEAVNAVPGTPLQGYLTRPQGEGPFPAIVILHGCAGIHPSVKETWPERLASWGYVVLVVDSFSTRGIQNTCNNLLVDRVYDAYGALEFLSNYSFVDPKRIAVMGFSAGGIATLEAVQFGGAERLMEHKFKAAVAYYPICKAANGDMAVPTLVLVGDLDDWSPAEQCRTMMKQRSGAGSPVQLNVYKGAHHAFDAPEFKTGFEAYGHWIEYNGIAADQSVSDVHAFLRGVFGN"}, "B5": {"name": "unnamed (protein)", "chain": "QTIEMAQSQIDKLAKIETDSLASYADSYTYDEEYFAENEPATIYYPKNLEGKVPAVIVVHGFNCKQKFLQKIPQHLSSHGFICITYTALDQKRPFQWPPGLMAAYEILRGESMRPDSPIYDHVDLDAVALVGHSMGGAGVLHTAMMPYPNGLRGKIKTVVGLNPYNGGPLMAEVGGGANDNLGDDLSHLDIPTMIVTGSYDIVAFPWKSFAFYNSLRGPAKHAFLSIDRMDHADWYFIPSEPKYPILRAILYSWLRAYLADDSEYRDYFVDRPGSSFDKYLKPLLSNTPNPLTRGGESFPPYVLSEEEDPLGTTN"}},
  "key": {"[1]": {"substrate": "gfPET", "assay": "Proxy for plastic degradation [Released monomer concentration (HPLC/LC-MS) (TPA+MHET+BHET)]"}, "[2]": {"substrate": "gfPET", "assay": "Proxy for plastic degradation [Released monomer concentration (HPLC/LC-MS) (MHET+BHET+TPA)]", "conditions": "pH 9"}},
  "data": [
    {"protein": "B1", "values": [
      {"measurement": "Proxy for plastic degradation", "setting": "[1]; pH 6", "result": 2.5, "unit": "µM"},
      {"measurement": "Proxy for plastic degradation", "setting": "[1]; pH 7", "result": 5, "unit": "µM"},
      {"measurement": "Proxy for plastic degradation", "setting": "[1]; pH 8", "result": 10, "unit": "µM"},
      {"measurement": "Proxy for plastic degradation", "setting": "[1]; pH 9", "result": 15, "unit": "µM"},
      {"measurement": "Proxy for plastic degradation", "setting": "[1]; pH 9, 25 °C", "result": 4, "unit": "µM"},
      {"measurement": "Proxy for plastic degradation", "setting": "[1]; pH 9, 30 °C", "result": 6.5, "unit": "µM"},
      {"measurement": "Proxy for plastic degradation", "setting": "[1]; pH 9, 35 °C", "result": 12, "unit": "µM"},
      {"measurement": "Proxy for plastic degradation", "setting": "[1]; pH 9, 37 °C", "result": 16, "unit": "µM"},
      {"measurement": "Proxy for plastic degradation", "setting": "[1]; pH 9, 40 °C", "result": 20, "unit": "µM"},
      {"measurement": "Proxy for plastic degradation", "setting": "[1]; pH 9, 45 °C", "result": 11, "unit": "µM"},
      {"measurement": "Proxy for plastic degradation", "setting": "[1]; pH 10", "result": 25, "unit": "µM"},
      {"measurement": "Proxy for plastic degradation", "setting": "[1]; pH 11", "result": 50, "unit": "µM"},
      {"measurement": "Proxy for plastic degradation", "setting": "[2]", "result": 17.5, "unit": "µM"}
    ]},
    {"protein": "B2", "values": [
      {"measurement": "Proxy for plastic degradation", "setting": "[2]", "result": 4, "unit": "µM"}
    ]},
    {"protein": "B3", "values": [
      {"measurement": "Proxy for plastic degradation", "setting": "[2]", "result": 4, "unit": "µM"}
    ]},
    {"protein": "B4", "values": [
      {"measurement": "Proxy for plastic degradation", "setting": "[2]", "result": 3.8, "unit": "µM"}
    ]},
    {"protein": "B5", "values": [
      {"measurement": "Proxy for plastic degradation", "setting": "[2]", "result": 2.4, "unit": "µM"}
    ]}
  ]
}
